# Source: paper PMC11348030, “mTORC1 phosphorylates and stabilizes LST2 to negatively regulate EGFR” (Proceedings of the National Academy of Sciences of the …, 2024)
# Where no end group is shown, it is not given here. The star is where a group is joined. FITC = O=C1OC2(c3ccc(O)cc3Oc3cc(O)ccc32)c2ccc(NC(=S)*)cc21
# B1: FITC-labeled LST2 TOS peptide including flanking residues (amino acids 395 to 407) (peptide, UniProt Q9HCC9 395-407, looked up)
# peptide: {FITC}-DEEERVFFMDDVE
# notes: also called LST2 TOS peptide WT; FITC-labeled peptide; source: synthetic peptide
# B2: full-length LST2 F401A (natural protein, UniProt Q9HCC9 1-887, looked up)
# chain: MMNRFRKWLYKPKRSDPQLLARFYYADEELNQVAAELDSLDGRKDPQRCTLLVSQFRSCQDNVLNIINQIMDECIPQDRAPRDFCVKFPEEIRHDNLAGQLWFGAECLAAGSIIMNRELESMAMRPLAKELTRSLEDVRGALRDQALRDLNTYTEKMREALRHFDVLFAEFELSYVSAMVPVKSPREYYVQQEVIVLFCETVERALDFGYLTQDMIDDYEPALMFSIPRLAIVCGLVVYADGPLNLDRKVEDMSELFRPFHTLLRKIRDLLQTLTEEELHTLERNLCISQDVEFPIRADVQGPAALAPALSAPLPPEGPLSAKAKDPDAELACSMQYDDQELEQLSRMVHRAGDEMSSLLSPPIACQSPAHRPGAEGSPGGEASPGRPRLRSGSDEEERVAFMDDVEGTAEALARPESPAGPFGWAGSTWADPQEKGQGGPGGAAGISLPASEKEEDLSNNNLEAEGTDGASLAGTSSCSCLDSRLHLDGWEVGADDAETAEMIAHRTGGMKLSATVIFNPKSPTSLDSAVATQEAASEPVAEGMDGGPHKLSTGATNCLLHSCVCCGSCGDSREDVVERLREKCSPGGVIGASYAAGLAKASDRAPERQEEAPPPSEDASNGREPKAPTSDKCLPHTSGSQVDTASGLQGEAGVAGQQEPEARELHAGSPSAHEAPQALSGSSSSTAGSCSSDKMGPEAAPAATHAAPQATREKIRSRFHGSHDLIHRLFVCISGVADQLQTNYASDLRSILKTLFEVMATKPETDDKEKLRKVTQTLRSAALEDCALCQETLSSSELAAKTRDGDFEDPPEWVPDEACGFCTACKAPFTVIRRKHHCRSCGKIFCSRCSSHSAPLPRYGQVKPVRVCTHCYMFHVTPFYSDKAGL
# notes: LST2 (ZFYVE28), full length, with F401A in the TOS motif; Tags and host in SI Appendix; also called TOS-deficient LST2-F401A; source: purified
# Key:
# [1] = biological target: T1, regulatory-associated protein of mTOR (RAPTOR) (UniProt Q8N122 1-1335); test: fluorescence polarisation; fluorescence anisotropy; purified RAPTOR with N-terminally FITC-labeled synthetic LST2 TOS peptides; N = 3; conditions: both partners purified
# T1 construct: RAPTOR, regulatory-associated protein of mTOR; purified protein; Construct, host and tags are in SI Appendix, Material and Methods; In the cryo-EM rows RAPTOR stood as a subunit of mTORC1; source: purified
# T1 sequence (Q8N122 whole entry): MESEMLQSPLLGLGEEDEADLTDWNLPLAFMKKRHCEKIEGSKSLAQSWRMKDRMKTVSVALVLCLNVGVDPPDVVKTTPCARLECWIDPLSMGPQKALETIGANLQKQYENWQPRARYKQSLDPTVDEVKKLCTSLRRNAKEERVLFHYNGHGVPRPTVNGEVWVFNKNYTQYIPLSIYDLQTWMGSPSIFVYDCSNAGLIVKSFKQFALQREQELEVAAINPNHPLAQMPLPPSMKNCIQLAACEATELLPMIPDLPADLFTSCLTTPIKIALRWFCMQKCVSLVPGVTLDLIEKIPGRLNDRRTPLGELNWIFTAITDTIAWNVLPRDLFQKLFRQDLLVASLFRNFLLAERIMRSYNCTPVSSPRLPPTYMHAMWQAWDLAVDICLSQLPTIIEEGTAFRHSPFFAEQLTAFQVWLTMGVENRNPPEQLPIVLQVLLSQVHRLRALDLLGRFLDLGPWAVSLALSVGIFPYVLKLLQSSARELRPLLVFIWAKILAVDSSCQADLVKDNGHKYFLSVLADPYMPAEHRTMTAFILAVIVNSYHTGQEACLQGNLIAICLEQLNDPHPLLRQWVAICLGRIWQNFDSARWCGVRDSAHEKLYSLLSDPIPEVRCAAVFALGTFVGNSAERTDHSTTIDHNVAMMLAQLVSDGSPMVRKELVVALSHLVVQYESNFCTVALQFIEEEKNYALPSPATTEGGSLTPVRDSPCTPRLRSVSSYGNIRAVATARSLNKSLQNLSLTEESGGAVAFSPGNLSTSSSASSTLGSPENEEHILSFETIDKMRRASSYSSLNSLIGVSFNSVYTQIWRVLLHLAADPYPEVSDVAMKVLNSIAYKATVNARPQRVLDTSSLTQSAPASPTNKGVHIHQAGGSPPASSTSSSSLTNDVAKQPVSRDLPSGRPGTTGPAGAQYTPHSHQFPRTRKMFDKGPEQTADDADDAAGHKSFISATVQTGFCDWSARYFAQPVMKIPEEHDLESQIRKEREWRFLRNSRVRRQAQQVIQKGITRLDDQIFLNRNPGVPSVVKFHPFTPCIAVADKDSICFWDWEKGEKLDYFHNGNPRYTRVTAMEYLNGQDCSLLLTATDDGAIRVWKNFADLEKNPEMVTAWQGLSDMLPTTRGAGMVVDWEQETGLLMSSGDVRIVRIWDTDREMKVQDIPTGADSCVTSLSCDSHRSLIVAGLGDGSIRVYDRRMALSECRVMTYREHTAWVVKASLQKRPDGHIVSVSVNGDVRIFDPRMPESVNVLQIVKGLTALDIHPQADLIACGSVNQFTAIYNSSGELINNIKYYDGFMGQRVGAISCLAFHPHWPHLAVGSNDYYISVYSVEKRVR
# [2] = biological target: T1, regulatory-associated protein of mTOR …; test: co-IP; coimmunoprecipitation with purified RAPTOR and purified full-length LST2 (WT or F401A); blot quantified, N = 3; conditions: both partners purified
Binder,Kd [1] [nM],fold reduction of binding against LST2-WT [2] [fold]
B1,330,
B2,,9
